Patent publication US20110300138A1 (published 2011)
Values belong to the molecule of their own block, whether it stands above or below them.

Key:
[1] = molecular target: human TSHR (thyroid stimulating hormone receptor) expressed in transfected CHO cells (human) (UniProt P16473); experiment: cell-based or functional assay
[2] = molecular target: TSHR (thyroid stimulating hormone receptor), full length human (human) (UniProt P16473); experiment: competitor ^125I-K1-70 IgG, TSHR coated tubes; 0.01 µg/mL in HBD
[3] = molecular target: full length human TSHR with mutation Arg255 Asp (human) (UniProt P16473); experiment: TSHR260-AP bridge ELISA, Arg255 Asp TSHR on wells; IgG at 10 µg/mL in HBD
[4] = molecular target: full length wild type human TSHR (human) (UniProt P16473); experiment: TSHR260-AP bridge ELISA, wild type TSHR on wells; IgG at 0.1 µg/mL in HBD
[5] = molecular target: full length human TSHR with mutation Arg255 Asp (human) (UniProt P16473); experiment: TSHR260-AP bridge ELISA, Arg255 Asp TSHR on wells; IgG at 0.1 µg/mL in HBD
[6] = molecular target: full length wild type human TSHR (human) (UniProt P16473); experiment: TSHR260-AP bridge ELISA, wild type TSHR on wells; IgG at 0.01 µg/mL in HBD
[7] = molecular target: full length human TSHR with mutation Arg255 Asp (human) (UniProt P16473); experiment: TSHR260-AP bridge ELISA, Arg255 Asp TSHR on wells; IgG at 0.005 µg/mL in HBD
[8] = molecular target: thyroid stimulating hormone receptor (TSHR), full length, coated on tubes (human) (UniProt P16473); experiment: inhibition of 125I-TSH binding, TSHR coated tubes; antibody 10 µg/mL in assay buffer
[9] = molecular target: TSH receptor (TSHR), full length human, coated on tubes (human) (UniProt P16473); experiment: inhibition of 125I-TSH binding to TSHR coated tubes; 1 µg/mL, diluted in assay buffer
[10] = molecular target: thyroid stimulating hormone receptor (TSHR), full length, coated on tubes (human) (UniProt P16473); experiment: inhibition of 125I-TSH binding, TSHR coated tubes; antibody 10 µg/mL in HBD serum pool
[11] = molecular target: thyroid stimulating hormone receptor (TSHR), full length, coated on tubes (human) (UniProt P16473); experiment: inhibition of 125I-TSH binding, TSHR coated tubes; antibody 100 µg/mL in HBD serum pool
[12] = molecular target: TSH receptor (TSHR), full length human, coated on tubes (human) (UniProt P16473); experiment: inhibition of 125I-TSH binding to TSHR coated tubes; 0.1 µg/mL, diluted in HBD serum pool
[13] = molecular target: TSH receptor (TSHR), full length human, coated on tubes (human) (UniProt P16473); experiment: inhibition of 125I-TSH binding to TSHR coated tubes; 0.01 µg/mL, diluted in HBD serum pool
[14] = molecular target: human thyroid stimulating hormone receptor (TSHR), full length (human) (UniProt P16473); experiment: 125I-K1-70 Fab (competitor) binding to TSHR coated tubes; test sample 10 µg/mL in HBD serum
[15] = molecular target: human thyroid stimulating hormone receptor (TSHR), full length (human) (UniProt P16473); experiment: 125I-K1-70 Fab (competitor) binding to TSHR coated tubes; test sample 100 µg/mL in HBD serum
[16] = molecular target: thyroid stimulating hormone receptor (full length human TSHR) (human) (UniProt P16473); experiment: ELISA, inhibition of TSH-biotin binding to TSHR coated wells; 100 µg/mL, diluted in HBD serum pool
[17] = molecular target: human TSH receptor (full length) coated on ELISA plate wells (human) (UniProt P16473); experiment: TSH-biotin binding inhibition ELISA, TSHR coated wells; 0.01 µg/mL in assay buffer + 100 µg/mL 5B3 IgG
[18] = molecular target: TSHR with Arg255 mutated to Asp expressed in CHO cells (human) (UniProt P16473); experiment: cell-based or functional assay
[19] = molecular target: wild type TSHR expressed in CHO cells (human) (UniProt P16473); experiment: cell-based or functional assay
[20] = molecular target: TSH receptor (TSHR), full length human, coated on tubes (human) (UniProt P16473); experiment: inhibition of 125I-TSH binding to TSHR coated tubes; 10 µg/mL, diluted in assay buffer
[21] = molecular target: TSHR260-alkaline phosphatase (TSHR260-AP) (human) (UniProt P05187); experiment: TSHR260-AP bridge ELISA, full length TSHR on wells; 100 µg/mL, diluted in assay buffer
[22] = molecular target: thyroid stimulating hormone receptor (TSHR), full length human TSHR (human) (UniProt P16473); experiment: TSH-biotin competition ELISA, TSHR coated wells; negative control, 0.01 µg/mL in assay buffer
[23] = molecular target: TSHR260-AP (human); experiment: TSHR260-AP bridge ELISA (full length TSHR on wells, TSHR260-AP in solution); IgG 100 µg/mL diluted in assay buffer
[24] = molecular target: human TSH receptor (full length) coated on ELISA plate wells (human) (UniProt P16473); experiment: TSH-biotin binding inhibition ELISA, TSHR coated wells; 0.1 µg/mL in assay buffer
[25] = molecular target: TSH receptor (TSHR), full length human, coated on tubes (human) (UniProt P16473); experiment: inhibition of 125I-K1-18 IgG (competitor) binding to TSHR coated tubes; test sample at 0.01 µg/mL in HBD serum pool
[26] = molecular target: thyroid stimulating hormone receptor (full length human TSHR) (human) (UniProt P16473); experiment: ELISA: inhibition of M22 Fab-peroxidase (competitor) binding to TSHR coated wells; 100 µg/mL, diluted in assay buffer

Molecule: 9D33 IgG (antibody)
% Inhibition; 10 ng/mL K1-18 IgG + 0.001 µg/mL 9D33 IgG [1]: 3% | % Inhibition; 10 ng/mL K1-18 IgG + 0.01 µg/mL 9D33 IgG [1]: 15% | % Inhibition; 10 ng/mL K1-18 IgG + 0.1 µg/mL 9D33 IgG [1]: 86% | % Inhibition; 10 ng/mL K1-18 IgG + 1 µg/mL 9D33 IgG [1]: 95% | % Inhibition; 10 ng/mL K1-18 IgG + 10 µg/mL 9D33 IgG [1]: 95% | % Inhibition; 10 ng/mL K1-18 IgG + 100 µg/mL 9D33 IgG [1]: 94% | Cyclic AMP concentration; 10 ng/mL K1-18 IgG + 0.001 µg/mL 9D33 IgG [1]: 35.8 pmol/mL | Cyclic AMP concentration; 10 ng/mL K1-18 IgG + 0.01 µg/mL 9D33 IgG [1]: 31.3 pmol/mL | Cyclic AMP concentration; 10 ng/mL K1-18 IgG + 0.1 µg/mL 9D33 IgG [1]: 5.3 pmol/mL | Cyclic AMP concentration; 10 ng/mL K1-18 IgG + 1 µg/mL 9D33 IgG [1]: 1.9 pmol/mL | Cyclic AMP concentration; 10 ng/mL K1-18 IgG + 10 µg/mL 9D33 IgG [1]: 1.9 pmol/mL | Cyclic AMP concentration; 10 ng/mL K1-18 IgG + 100 µg/mL 9D33 IgG [1]: 2.2 pmol/mL | Cyclic AMP concentration; 100 µg/mL 9D33 IgG [1]: 2 pmol/mL | Inhibition of binding (%) [2]: 0.6% | Mean absorbance at 405 nm (absorbance at 405 nm) [3]: 0.534 | Mean absorbance at 405 nm (absorbance at 405 nm) [4]: 0.102 | Mean absorbance at 405 nm (absorbance at 405 nm) [5]: 0.053 | Mean absorbance at 405 nm (absorbance at 405 nm) [6]: 0.011 | Mean absorbance at 405 nm (absorbance at 405 nm) [7]: 0.001 | Inhibition of binding (%) [8]: 58.7% | Inhibition of binding (%) [9]: 50.9% | Inhibition of binding (%) [10]: 60.5% | Inhibition of binding (%) [11]: 67.4% | Inhibition of binding (%) [12]: 30.5% | Inhibition of binding (%) [13]: 3.6% | Inhibition of binding (%) [14]: 47.7% | Inhibition of binding (%) [15]: 55.7% | Inhibition of binding (%) [16]: 84%

Molecule: TSH (ligand)
% inhibition of TSH stimulation; TSH (2) control [18]: 13% | Cyclic AMP produced; TSH 3 ng/mL alone [18]: 57.8 pmol/mL | Cyclic AMP produced; TSH (2) [18]: 50.2 pmol/mL | Mutated/wild type (%) of cyclic AMP produced; TSH 3 ng/mL alone [18]: 87% | Mutated/wild type (%) of cyclic AMP produced; TSH (2) [18]: 77% | % inhibition of TSH stimulation; TSH (2) control [19]: 2% | Cyclic AMP produced; TSH 3 ng/mL alone [19]: 66.5 pmol/mL | Cyclic AMP produced; TSH (2) [19]: 64.8 pmol/mL

The next lines start with the values.

Mean absorbance at 405 nm (absorbance at 405 nm) [3]: 0.551 | Mean absorbance at 405 nm (absorbance at 405 nm) [4]: 0.599 | Mean absorbance at 405 nm (absorbance at 405 nm) [5]: 0.05 | Mean absorbance at 405 nm (absorbance at 405 nm) [6]: 0.064 | Mean absorbance at 405 nm (absorbance at 405 nm) [7]: -0.007 | Inhibition of binding (%) [13]: -0.3% | % inhibition of TSH-biotin binding [17]: 12.9%
Molecule: M22 IgG (antibody)

% Inhibition; 10 ng/mL K1-18 IgG + 10 µg/mL 5B3 IgG [1]: 4% | % Inhibition; 10 ng/mL K1-18 IgG + 100 µg/mL 5B3 IgG [1]: -13% | Cyclic AMP concentration; 10 ng/mL K1-18 IgG + 10 µg/mL 5B3 IgG [1]: 35.4 pmol/mL | Cyclic AMP concentration; 10 ng/mL K1-18 IgG + 100 µg/mL 5B3 IgG [1]: 41.9 pmol/mL | Cyclic AMP concentration; 100 µg/mL 5B3 IgG [1]: 1.3 pmol/mL | % inhibition of TSH stimulation; 5B3 10 µg/mL [18]: 0% | % inhibition of TSH stimulation; 5B3 100 µg/mL [18]: 0% | Cyclic AMP produced; 5B3 10 µg/mL + TSH 3 ng/mL [18]: 59.4 pmol/mL | Cyclic AMP produced; 5B3 100 µg/mL + TSH 3 ng/mL [18]: 62.2 pmol/mL | Mutated/wild type (%) of cyclic AMP produced; 5B3 10 µg/mL + TSH 3 ng/mL [18]: 86% | Mutated/wild type (%) of cyclic AMP produced; 5B3 100 µg/mL + TSH 3 ng/mL [18]: 75% | % inhibition of TSH stimulation; 5B3 10 µg/mL [19]: 0% | % inhibition of TSH stimulation; 5B3 100 µg/mL [19]: 0% | Cyclic AMP produced; 5B3 10 µg/mL + TSH 3 ng/mL [19]: 69.2 pmol/mL | Cyclic AMP produced; 5B3 100 µg/mL + TSH 3 ng/mL [19]: 83.4 pmol/mL | Inhibition of binding (%) [9]: -1.7% | Inhibition of binding (%) [20]: -5.7% | Mean absorbance at 405 nm (absorbance at 405 nm) [21]: -0.011 | Inhibition of binding (%) [12]: 4.4% | Inhibition of binding (%) [22]: -5.9% | Mean absorbance at 405 nm (absorbance at 405 nm) [23]: -0.011
Molecule: 5B3 IgG (antibody)

% inhibition of TSH-biotin binding [24]: 34.9% | Inhibition of binding (%) [8]: 40.5% | Inhibition of binding (%) [10]: 40.9% | Mean absorbance at 405 nm (absorbance at 405 nm) [21]: 0.669 | Inhibition of binding (%) [11]: 35.3% | Inhibition of binding (%) [14]: 20.7% | Inhibition of binding (%) [15]: 40.6% | Inhibition of binding (%) [16]: 37.1% | % inhibition of TSH-biotin binding [17]: 20.7% | Mean absorbance at 405 nm (absorbance at 405 nm) [23]: 0.669 | Inhibition of binding (%) [25]: -1.8% | Inhibition of binding (%) [26]: 24.6%
B1: 5C9 IgG (antibody, from another filing, V domains shown)
VH: EVQLVESGGGLIQPGGSLRLSCAASGFTVSSNYMSWVRQAPGKGLEWVSVTYSGGSTSYADSVKGRFTISRDNSKNTLYLQMNSLRAEDTAVYYCARGGRYCSSISCYARSGCDYWGQGTLVTVSS
VL: AIQMTQSPSSLSASVGDRVTITCRASQSISNYLNWYQQKPGKAPKLLIYAASSLQSGVPSRFSGSGSGTDFTLTISSLQPEDFATYYCQQSYSSPSTTFGQGTKLEIK
